The target in assay [1] is T1, EMR1 on human eosinophils (human, UniProt Q14246 21-886).
T1 construct: whole, on cells
T1 sequence (looked up): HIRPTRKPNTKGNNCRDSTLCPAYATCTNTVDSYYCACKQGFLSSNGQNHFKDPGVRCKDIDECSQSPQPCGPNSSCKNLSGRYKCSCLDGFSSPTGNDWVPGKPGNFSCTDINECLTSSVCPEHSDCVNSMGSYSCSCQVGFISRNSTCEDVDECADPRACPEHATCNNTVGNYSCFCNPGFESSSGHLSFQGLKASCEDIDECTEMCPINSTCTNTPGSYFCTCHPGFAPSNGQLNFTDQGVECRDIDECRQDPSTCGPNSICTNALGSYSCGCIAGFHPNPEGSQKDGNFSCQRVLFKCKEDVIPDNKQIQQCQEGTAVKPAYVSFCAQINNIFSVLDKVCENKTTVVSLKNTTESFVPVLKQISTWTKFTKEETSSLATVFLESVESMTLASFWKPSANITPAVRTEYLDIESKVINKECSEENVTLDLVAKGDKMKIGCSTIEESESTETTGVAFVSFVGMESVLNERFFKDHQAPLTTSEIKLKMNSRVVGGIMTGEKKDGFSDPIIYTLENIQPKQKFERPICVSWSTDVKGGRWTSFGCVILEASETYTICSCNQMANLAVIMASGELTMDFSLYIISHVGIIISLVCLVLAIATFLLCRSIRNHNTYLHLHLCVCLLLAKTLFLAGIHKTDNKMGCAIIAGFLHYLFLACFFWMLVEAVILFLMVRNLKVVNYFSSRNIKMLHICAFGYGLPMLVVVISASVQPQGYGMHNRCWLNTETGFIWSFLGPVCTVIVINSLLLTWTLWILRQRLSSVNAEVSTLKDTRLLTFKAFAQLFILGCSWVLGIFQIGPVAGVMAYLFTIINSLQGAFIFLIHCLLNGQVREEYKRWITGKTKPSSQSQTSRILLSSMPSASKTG
Put plainly: flow cytometry on human eosinophils. The procedure:
Splenic B cells from mice immunized with purified human EMR1-Fc fusion protein were fused with SP2/0-Ag14 cells to generate hybridoma cell lines. Supernatants containing antibody from monoclonal lines were tested for binding to recombinant human EMR1 by ELISA. Antibodies that bound EMR1 were tested for binding to human eosinophils by flow cytometry. Polymorphonuclear-cell rich fractions from buffy coat blood were obtained by Ficoll gradient centrifugation and residual red blood cells were lysed with ammonium chloride (ACK lysis buffer). Eosinophils were isolated by negative selection using a MACS eosinophil isolation kit (Miltenyi) and incubated with 10 μg/ml rat IgG and 2% BSA to block nonspecific IgG binding before addition of anti-EMR1 antibody or isotype control antibody. Anti-mouse FITC antibody was used for detection of bound antibodies on a FACSCalibur flow cytometer.

The next assay addresses T2, EMR2 (UniProt Q9UHX3 24-540, limits assumed).
T2 sequence (looked up): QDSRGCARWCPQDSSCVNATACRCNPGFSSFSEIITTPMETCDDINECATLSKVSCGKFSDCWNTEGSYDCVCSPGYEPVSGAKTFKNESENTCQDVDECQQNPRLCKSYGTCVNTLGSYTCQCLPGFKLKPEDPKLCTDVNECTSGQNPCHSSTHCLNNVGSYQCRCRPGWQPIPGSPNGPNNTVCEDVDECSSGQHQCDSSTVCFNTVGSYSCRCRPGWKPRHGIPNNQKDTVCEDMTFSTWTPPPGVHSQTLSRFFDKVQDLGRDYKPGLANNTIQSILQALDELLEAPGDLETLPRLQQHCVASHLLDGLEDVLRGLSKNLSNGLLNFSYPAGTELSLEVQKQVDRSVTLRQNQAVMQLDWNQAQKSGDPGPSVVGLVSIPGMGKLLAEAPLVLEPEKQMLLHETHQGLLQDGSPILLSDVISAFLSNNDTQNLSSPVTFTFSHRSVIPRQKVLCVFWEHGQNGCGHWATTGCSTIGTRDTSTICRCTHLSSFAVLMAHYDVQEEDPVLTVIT
As to the kind of experiment: not described.

The target in a further assay is T3, CD97 (UniProt P48960 21-552, limits assumed).
T3 sequence (looked up): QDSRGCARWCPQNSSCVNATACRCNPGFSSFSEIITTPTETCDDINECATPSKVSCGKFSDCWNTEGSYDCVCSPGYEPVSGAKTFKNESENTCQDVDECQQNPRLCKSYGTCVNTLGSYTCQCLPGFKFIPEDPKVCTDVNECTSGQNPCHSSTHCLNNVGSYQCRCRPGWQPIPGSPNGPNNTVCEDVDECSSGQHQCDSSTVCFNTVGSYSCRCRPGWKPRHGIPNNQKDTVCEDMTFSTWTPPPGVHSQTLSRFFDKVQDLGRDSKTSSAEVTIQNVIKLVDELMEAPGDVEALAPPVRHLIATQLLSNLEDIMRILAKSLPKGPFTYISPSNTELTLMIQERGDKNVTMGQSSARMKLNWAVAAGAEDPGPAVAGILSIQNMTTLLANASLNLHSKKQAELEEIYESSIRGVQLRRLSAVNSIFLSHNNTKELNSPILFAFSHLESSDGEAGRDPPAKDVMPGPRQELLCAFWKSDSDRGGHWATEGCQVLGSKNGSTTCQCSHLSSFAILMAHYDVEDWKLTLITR
As to the kind of experiment: not described.

In a further assay the target is T4, Peptide 1.
T4 construct: also called 27 mer; EMR1 ELD-6 271-297
T4 peptide: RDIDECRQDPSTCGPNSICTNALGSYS
Put plainly: biolayer interferometry (ForteBio Octet).

The target of a further assay is T5, Peptide 4.
T5 construct: also called 20 mer; EMR1 ELD-6 271-290
T5 peptide: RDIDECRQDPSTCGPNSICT
Put plainly: biolayer interferometry (ForteBio Octet).

A further assay deals with T6, Peptide 7.
T6 construct: also called 18 mer; EMR1 ELD-6 271-288
T6 peptide: RDIDECRQDPSTCGPNSI
Put plainly: biolayer interferometry (ForteBio Octet).

B1: monoclonal antibody 19-1E7 (antibody, V domains shown)
VH: QVQLKESGPGLVAPSQSLSITCTVSGFSLTNFGIHWVRQPPGKGLEWLGVIWSGGGTNYNSALMSRLSISKDNSKSQVFLKMNSLQTDDTAIYYCVSIYYRGFDSWGQGTTLTVSS
VL: DVFMTQAPLSLPVSLGDQASISCRSSQSIVHSNGNTYLEWYLQKPGQSPKLLIYRVSNRFSGVPDRFSGSGSGTDFTLKISRVEAEDLGVYYCFQGSHVPLTFGAGTRLELK
notes: Murine hybridoma antibody raised against human EMR1-Fc; Hybridoma supernatant was used in the screening
B1: the binding result is recorded as “binds” in assay [1], “no binding” in the assay with EMR2 and “no binding” in the assay with CD97.

B2: chimeric 19-1E7 IgG1k antibody (c1E7) (antibody, V domains shown)
VH: QVQLKESGPGLVAPSQSLSITCTVSGFSLTNFGIHWVRQPPGKGLEWLGVIWSGGGTNYNSALMSRLSISKDNSKSQVFLKMNSLQTDDTAIYYCVSIYYRGFDSWGQGTTLTVSS
VL: DVFMTQAPLSLPVSLGDQASISCRSSQSIVHSNGNTYLEWYLQKPGQSPKLLIYRVSNRFSGVPDRFSGSGSGTDFTLKISRVEAEDLGVYYCFQGSHVPLTFGAGTRLELK
notes: 19-1E7 variable regions combined with human gamma-1 Fc and kappa constant regions (IgG1 kappa); Made in fucosylated (CHOK1 SV) and non-fucosylated (MS704-PF) forms; also called chimeric 1E7
Take B2: the binding result with Peptide 1, with Peptide 4 and with Peptide 7 was “binds” in each case.

(Values after patent publication US20130064826A1 (KALOBIOS PHARMACEUTICALS, published 2013).)
